Data taken from IntAct's records for PubMed 33420071.

B1: Dual oxidase 1 (Homo sapiens), Q9NRD9 (parent)
chain: MGFCLALAWTLLVGAWTPLGAQNPISWEVQRFDGWYNNLMEHRWGSKGSRLQRLVPASYADGVYQPLGEPHLPNPRDLSNTISRGPAGLASLRNRTVLGVFFGYHVLSDLVSVETPGCPAEFLNIRIPPGDPMFDPDQRGDVVLPFQRSRWDPETGRSPSNPRDPANQVTGWLDGSAIYGSSHSWSDALRSFSRGQLASGPDPAFPRDSQNPLLMWAAPDPATGQNGPRGLYAFGAERGNREPFLQALGLLWFRYHNLWAQRLARQHPDWEDEELFQHARKRVIATYQNIAVYEWLPSFLQKTLPEYTGYRPFLDPSISSEFVAASEQFLSTMVPPGVYMRNASCHFQGVINRNSSVSRALRVCNSYWSREHPSLQSAEDVDALLLGMASQIAEREDHVLVEDVRDFWPGPLKFSRTDHLASCLQRGRDLGLPSYTKARAALGLSPITRWQDINPALSRSNDTVLEATAALYNQDLSWLELLPGGLLESHRDPGPLFSTIVLEQFVRLRDGDRYWFENTRNGLFSKKEIEEIRNTTLQDVLVAVINIDPSALQPNVFVWHKGDPCPQPRQLSTEGLPACAPSVVRDYFEGSGFGFGVTIGTLCCFPLVSLLSAWIVARLRMRNFKRLQGQDRQSIVSEKLVGGMEALEWQGHKEPCRPVLVYLQPGQIRVVDGRLTVLRTIQLQPPQKVNFVLSSNRGRRTLLLKIPKEYDLVLLFNLEEERQALVENLRGALKESGLSIQEWELREQELMRAAVTREQRRHLLETFFRHLFSQVLDINQADAGTLPLDSSQKVREALTCELSRAEFAESLGLKPQDMFVESMFSLADKDGNGYLSFREFLDILVVFMKGSPEEKSRLMFRMYDFDGNGLISKDEFIRMLRSFIEISNNCLSKAQLAEVVESMFRESGFQDKEELTWEDFHFMLRDHNSELRFTQLCVKGVEVPEVIKDLCRRASYISQDMICPSPRVSARCSRSDIETELTPQRLQCPMDTDPPQEIRRRFGKKVTSFQPLLFTEAHREKFQRSCLHQTVQQFKRFIENYRRHIGCVAVFYAIAGGLFLERAYYYAFAAHHTGITDTTRVGIILSRGTAASISFMFSYILLTMCRNLITFLRETFLNRYVPFDAAVDFHRLIASTAIVLTVLHSVGHVVNVYLFSISPLSVLSCLFPGLFHDDGSELPQKYYWWFFQTVPGLTGVVLLLILAIMYVFASHHFRRRSFRGFWLTHHLYILLYVLLIIHGSFALIQLPRFHIFFLVPAIIYGGDKLVSLSRKKVEISVVKAELLPSGVTHLRFQRPQGFEYKSGQWVRIACLALGTTEYHPFTLTSAPHEDTLSLHIRAAGPWTTRLREIYSAPTGDRCARYPKLYLDGPFGEGHQEWHKFEVSVLVGGGIGVTPFASILKDLVFKSSVSCQVFCKKIYFIWVTRTQRQFEWLADIIREVEENDHQDLVSVHIYITQLAEKFDLRTTMLYICERHFQKVLNRSLFTGLRSITHFGRPPFEPFFNSLQEVHPQVRKIGVFSCGPPGMTKNVEKACQLINRQDRTHFSHHYENF
partner: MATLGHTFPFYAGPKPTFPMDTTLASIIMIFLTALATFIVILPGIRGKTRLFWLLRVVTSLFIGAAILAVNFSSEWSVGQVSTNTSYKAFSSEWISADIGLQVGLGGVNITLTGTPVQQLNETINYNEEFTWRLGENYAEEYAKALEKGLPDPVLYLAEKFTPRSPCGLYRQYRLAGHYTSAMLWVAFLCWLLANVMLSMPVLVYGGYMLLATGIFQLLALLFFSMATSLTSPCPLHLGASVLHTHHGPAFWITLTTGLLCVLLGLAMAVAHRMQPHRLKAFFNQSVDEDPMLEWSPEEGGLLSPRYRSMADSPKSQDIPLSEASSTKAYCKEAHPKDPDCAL

Variants of: B1
Settings: with doxa1_human DUOXA1, Q1HG43

effect of a mutation on the interaction | Variant
disrupting interaction strength | R50E
disrupting interaction strength | R507E
disrupting interaction strength | R507A
